Test [1] addresses ErbB4 pY906 phosphopeptide, rhodamine-labelled (human). In words: fluorescence polarisation; saturation binding in solution: rhodamine peptide fixed at 10 nM, protein titrated 0.002-10 uM, 20 min at room temperature; assay buffer 20 mM HEPES, 100 mM KCl, 0.1% Tween-20, 5 mM DTT, pH 7.8; apparent KD. In general terms: Polarisation of emitted light reports the rotation of a fluorescent probe.

The target of test [2] is phosphopeptides corresponding to ErbB1 intracellular tyrosine sites (human). In words: fluorescence polarisation; saturation binding in solution; rhodamine-labeled peptide fixed at 10 nM, protein titrated 0.002-10 µM (twelve two-fold dilutions); 20 minutes at room temperature in the dark; assay buffer 20 mM HEPES, 100 mM KCl, 0.1% Tween-20, 5 mM DTT, pH 7.8; apparent KD; assay detection threshold of 20 µM.

Test [3] deals with phosphopeptides corresponding to ErbB2 intracellular tyrosine sites (human). Described as above.
Test [4] addresses phosphopeptides corresponding to ErbB4 intracellular tyrosine sites (human). The test is described as above.
The target in test [5] is MET pY1313 phosphopeptide, rhodamine-labelled. Nature of the test: fluorescence polarisation; saturation binding in solution: rhodamine peptide fixed at 10 nM, protein titrated 0.002-10 uM, 20 min at room temperature; assay buffer 20 mM HEPES, 100 mM KCl, 0.1% Tween-20, 5 mM DTT, pH 7.8; apparent KD.
Test [6] addresses ErbB1 pY801 phosphopeptide, rhodamine-labelled (human). The test is described as above.

Four molecules from article PMC3433420 can be followed below.

B1: SHC3 SH2 domain (domain or fragment)
chain: WYQGEMSRKEAEGLLEKDGDFLVRKSTTNPGSFVLTGMHNGQAKHLLLVDPEGTIRTKDRVFDSISHLINHHLESSLPIVSAGSELCLQQPV
Consider B1, for which the Kd in test [1] is 0.54 µM.

B2: GRAP2 SH2 domain (domain or fragment)
chain: WFHEGLSRHQAENLLMGKEVGFFIIRASQSSPGDFSISVRHEDDVQHFKVMRDNKGNYFLWTEKFPSLNKLVDYYRTNSISRQKQIFLRDRT
As to B2, the Kd in test [2], in test [3] and in test [4] was 1 µM throughout.

B3: VAV2 SH2 domain (domain or fragment)
chain: WFAGNMERQQTDNLLKSHASGTYLIRERPAEAERFAISIKFNDEVKHIKVVEKDNWIHITEAKKFDSLLELVEYYQCHSLKESFKQLDTTLKYPY
Take B3: the Kd in test [5] turned out to be 17 µM.

B4: TNS3 SH2 domain (domain or fragment)
chain: WYKADISREQAIAMLKDKEPGSFIVRDSHSFRGAYGLAMKVATPPPSVLQLNKKAGDLANELVRHFLIECTPKGVRLKGCSNEPYFGSLTALVCQHSITPLALPCKLLIPE
Consider B4, for which the Kd in test [6] was 5.35 µM; in test [5], 5.89 µM.
